Experimental data as given in patent US20130005646A1 (Novo Nordisk, published 2013).
Starred links: 1 amine or outer side, 2 acyl side, 3 side chain; linkers in the order of their positions; H or OH if unused. Positions of bridges follow the written chain, without caps; N, C: chain ends. Groups on a side chain read outwards from the residue. No end group written: not given here. *: point of attachment. X1 = (S)‑4‑Carboxy‑4‑(19-carboxynonadecanoylamino)butyryl, O=C(O)CCCCCCCCCCCCCCCCCCC(=O)N[C@@H](CCC(=O)*)C(=O)O; γGlu = O=C(O)[C@H](CCC(=O)[*:2])N[*:1]; AEEA = NCCOCCOCC(=O)O

Experiments:
[1] = biological target: T1, human amylin 3(a) receptor (human calcitonin receptor + RAMP-3) (human, UniProt P30988 25-474; O60896 24-148); assay: cell-based or functional assay
T1 sequence (looked up) 1: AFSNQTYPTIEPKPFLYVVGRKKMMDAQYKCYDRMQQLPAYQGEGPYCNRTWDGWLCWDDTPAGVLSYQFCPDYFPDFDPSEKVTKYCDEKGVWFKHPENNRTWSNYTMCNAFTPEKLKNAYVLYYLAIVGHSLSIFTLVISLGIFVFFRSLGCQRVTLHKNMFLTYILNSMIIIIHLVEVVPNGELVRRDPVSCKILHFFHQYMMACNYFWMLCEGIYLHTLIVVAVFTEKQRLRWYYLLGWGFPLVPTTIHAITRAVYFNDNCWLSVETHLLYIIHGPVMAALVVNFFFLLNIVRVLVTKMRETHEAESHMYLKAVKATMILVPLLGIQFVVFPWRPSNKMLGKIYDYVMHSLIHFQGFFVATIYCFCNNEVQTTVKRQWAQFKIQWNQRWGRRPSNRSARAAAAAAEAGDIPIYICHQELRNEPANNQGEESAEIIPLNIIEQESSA
T1 sequence (looked up) 2: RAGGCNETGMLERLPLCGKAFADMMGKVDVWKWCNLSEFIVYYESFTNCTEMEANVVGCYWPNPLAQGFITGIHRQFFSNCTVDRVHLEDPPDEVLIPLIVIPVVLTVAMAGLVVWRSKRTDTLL

[2] = biological target: T2, human calcitonin (a) receptor (human, UniProt P30988 25-474); assay: cell-based or functional assay
T2 sequence (looked up): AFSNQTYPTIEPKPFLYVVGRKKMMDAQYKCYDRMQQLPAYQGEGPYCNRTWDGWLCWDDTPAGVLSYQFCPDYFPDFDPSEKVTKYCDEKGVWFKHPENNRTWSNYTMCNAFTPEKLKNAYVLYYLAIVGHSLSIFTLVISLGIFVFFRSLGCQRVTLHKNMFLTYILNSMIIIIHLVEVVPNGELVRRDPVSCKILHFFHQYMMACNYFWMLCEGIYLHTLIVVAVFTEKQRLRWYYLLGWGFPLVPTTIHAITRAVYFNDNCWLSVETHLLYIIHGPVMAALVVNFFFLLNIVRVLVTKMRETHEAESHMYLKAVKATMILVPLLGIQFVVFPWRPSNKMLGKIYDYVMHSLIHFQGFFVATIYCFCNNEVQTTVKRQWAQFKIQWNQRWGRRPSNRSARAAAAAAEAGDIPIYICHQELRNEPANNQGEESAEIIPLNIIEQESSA

B1: N-alpha-[(S)-4-Carboxy-4-(19-carboxynonadecanoylamino)butyryl]-[His1,Glu14,Arg18]-pramlintide (peptide)
peptide: X1-HCNTATCATQRLAEFLVRSSNNFGPILPPTNVGSNTY-NH2
modifications: disulfide 2-7
SMILES: CC[C@H](C)[C@H](NC(=O)[C@@H]1CCCN1C(=O)CNC(=O)[C@H](Cc1ccccc1)NC(=O)[C@H](CC(N)=O)NC(=O)[C@H](CC(N)=O)NC(=O)[C@H](CO)NC(=O)[C@H](CO)NC(=O)[C@H](CCCNC(=N)N)NC(=O)[C@@H](NC(=O)[C@H](CC(C)C)NC(=O)[C@H](Cc1ccccc1)NC(=O)[C@H](CCC(=O)O)NC(=O)[C@H](C)NC(=O)[C@H](CC(C)C)NC(=O)[C@H](CCCNC(=N)N)NC(=O)[C@H](CCC(N)=O)NC(=O)[C@@H](NC(=O)[C@H](C)NC(=O)[C@@H]1CSSC[C@H](NC(=O)[C@H](Cc2c[nH]cn2)NC(=O)CC[C@H](NC(=O)CCCCCCCCCCCCCCCCCCC(=O)O)C(=O)O)C(=O)N[C@@H](CC(N)=O)C(=O)N[C@@H]([C@@H](C)O)C(=O)N[C@@H](C)C(=O)N[C@@H]([C@@H](C)O)C(=O)N1)[C@@H](C)O)C(C)C)C(=O)N[C@@H](CC(C)C)C(=O)N1CCC[C@H]1C(=O)N1CCC[C@H]1C(=O)N[C@H](C(=O)N[C@@H](CC(N)=O)C(=O)N[C@H](C(=O)NCC(=O)N[C@@H](CO)C(=O)N[C@@H](CC(N)=O)C(=O)N[C@H](C(=O)N[C@@H](Cc1ccc(O)cc1)C(N)=O)[C@@H](C)O)C(C)C)[C@@H](C)O
Q: For B1, which “Amylin receptor human EC50” value [1] is on record?
A: 0.083 nM

Q: What about the “CTa receptor human EC50” value [2] of the same binder?
A: 0.125 nM

B2: N-alpha-[(S)-4-Carboxy-4-(19-carboxynonadecanoylamino)butyryl]-[His1,Glu14,His17,Arg18,Glu22,Ala25,Arg26,Ser28,Ser29]-pramlintide (peptide)
peptide: X1-HCNTATCATQRLAEFLHRSSNEFGARLSSTNVGSNTY-NH2
modifications: disulfide 2-7
SMILES: CC(C)C[C@H](NC(=O)[C@H](CCCNC(=N)N)NC(=O)[C@H](CCC(N)=O)NC(=O)[C@@H](NC(=O)[C@H](C)NC(=O)[C@@H]1CSSC[C@H](NC(=O)[C@H](Cc2c[nH]cn2)NC(=O)CC[C@H](NC(=O)CCCCCCCCCCCCCCCCCCC(=O)O)C(=O)O)C(=O)N[C@@H](CC(N)=O)C(=O)N[C@@H]([C@@H](C)O)C(=O)N[C@@H](C)C(=O)N[C@@H]([C@@H](C)O)C(=O)N1)[C@@H](C)O)C(=O)N[C@@H](C)C(=O)N[C@@H](CCC(=O)O)C(=O)N[C@@H](Cc1ccccc1)C(=O)N[C@@H](CC(C)C)C(=O)N[C@@H](Cc1c[nH]cn1)C(=O)N[C@@H](CCCNC(=N)N)C(=O)N[C@@H](CO)C(=O)N[C@@H](CO)C(=O)N[C@@H](CC(N)=O)C(=O)N[C@@H](CCC(=O)O)C(=O)N[C@@H](Cc1ccccc1)C(=O)NCC(=O)N[C@@H](C)C(=O)N[C@@H](CCCNC(=N)N)C(=O)N[C@@H](CC(C)C)C(=O)N[C@@H](CO)C(=O)N[C@@H](CO)C(=O)N[C@H](C(=O)N[C@@H](CC(N)=O)C(=O)N[C@H](C(=O)NCC(=O)N[C@@H](CO)C(=O)N[C@@H](CC(N)=O)C(=O)N[C@H](C(=O)N[C@@H](Cc1ccc(O)cc1)C(N)=O)[C@@H](C)O)C(C)C)[C@@H](C)O
Q: For B2, which “Amylin receptor human EC50” value [1] is on record?
A: 0.127 nM

Q: What about the “CTa receptor human EC50” value [2] of the same binder?
A: 0.279 nM

Q: With RCNTATCATQRLAEFLHRSSK([AEEA-AEEA-γGlu-19‑carboxyheptadecanoyl])NFGPILPPTNVGSNTY-NH2 (disulfide 2-7) as the binder, how does the “Amylin receptor human EC50” value [1] read?
A: 0.0994 nM

Q: And the “CTa receptor human EC50” value [2]?
A: 0.469 nM
